# In IntAct's records for PubMed 27458164:
# B1: Src-like-adapter 2 (Mus musculus), Q8R4L0 (parent)
# chain: MGSLSSRGKTSSPSPSSSGPDQEPVSMQPERHKVTAVALGSFPAGEQARLSLRLGEPLTIISEDGDWWTVQSEVSGREYHMPSVYVAKVAHGWLYEGLSREKAEELLLLPGNPGGAFLIRESQTRRGCYSLSVRLSRPASWDRIRHYRIQRLDNGWLYISPRLTFPSLHALVEHYSELADGICCPLREPCVLQKLGPLPGKDTPPPVTVPTSSLNWKKLDRSLLFLEAPASGEASLLSEGLRESLSSYISLAEDPLDDA
# Variants of: B1
# Conditions: with flt3_human FLT3, P36888
# Chain of flt3_human FLT3, P36888 (P36888 whole entry): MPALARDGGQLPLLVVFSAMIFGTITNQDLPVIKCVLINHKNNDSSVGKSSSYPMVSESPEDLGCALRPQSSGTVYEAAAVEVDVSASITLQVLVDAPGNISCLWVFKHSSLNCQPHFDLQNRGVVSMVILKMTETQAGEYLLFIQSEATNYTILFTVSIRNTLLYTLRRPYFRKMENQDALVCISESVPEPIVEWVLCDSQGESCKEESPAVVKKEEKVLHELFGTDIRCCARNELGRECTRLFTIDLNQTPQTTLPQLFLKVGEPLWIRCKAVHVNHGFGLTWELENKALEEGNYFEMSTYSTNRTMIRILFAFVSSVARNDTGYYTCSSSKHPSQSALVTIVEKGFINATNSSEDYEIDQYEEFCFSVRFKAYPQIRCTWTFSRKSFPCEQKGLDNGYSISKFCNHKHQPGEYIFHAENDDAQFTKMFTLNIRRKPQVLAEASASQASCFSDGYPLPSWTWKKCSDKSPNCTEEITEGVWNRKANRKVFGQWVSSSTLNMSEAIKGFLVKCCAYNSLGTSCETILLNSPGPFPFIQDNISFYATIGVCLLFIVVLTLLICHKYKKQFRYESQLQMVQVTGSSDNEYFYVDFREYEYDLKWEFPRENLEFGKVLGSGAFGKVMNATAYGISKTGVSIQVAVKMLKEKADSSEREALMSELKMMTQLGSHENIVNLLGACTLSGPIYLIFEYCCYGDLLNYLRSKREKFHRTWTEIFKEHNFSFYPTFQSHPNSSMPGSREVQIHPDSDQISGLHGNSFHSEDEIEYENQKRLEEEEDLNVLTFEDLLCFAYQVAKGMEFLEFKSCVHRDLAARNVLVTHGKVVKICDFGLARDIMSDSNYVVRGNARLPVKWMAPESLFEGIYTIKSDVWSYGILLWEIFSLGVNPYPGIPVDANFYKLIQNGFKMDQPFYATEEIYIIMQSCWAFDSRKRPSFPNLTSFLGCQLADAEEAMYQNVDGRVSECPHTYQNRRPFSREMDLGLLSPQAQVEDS
row,Variant,effect of a mutation on the interaction
1,MGSLSSRGKTSSPSPSSSGPDQEPVSMQPERHKVTAVALGSFPAGEQARLSLRLGEPLTIISEDGDWWTVQSEVSGREYHMPSVYVAKVAHGWLYEGLSREKAEELLLLPGNPGGAFLIEESQTRRGCYSLSVRLSRPASWDRIRHYRIQRLDNGWLYISPRLTFPSLHALVEHYSELADGICCPLREPCVLQKLGPLPGKDTPPPVTVPTSSLNWKKLDRSLLFLEAPASGEASLLSEGLRESLSSYISLAEDPLDDA [R120E],disrupting interaction
